Kd data for 1 molecule are collected here from patent US20210363224A1 (CONSEJO SUPERIOR DE INVESTIGACIONES CIENT FICAS, published 2021).

The target of this experiment is T1, Recombinant human IL13 (PeproTech) (human, UniProt P35225 35-146, limits assumed).
T1 construct: Bought reagent; also called interleukin 13
The experiment can be described thus: SPR, BIAcore 3000, IL-13 amine-coupled to CM5 sensor chip (7700 RU), peptide as analyte. The procedure:
Binding of D1 peptide to IL-13 was monitored by surface plasmon resonance on a BIAcore 3000 instrument (BIAcore Inc, Switzerland). IL-13 was covalently amino coupled to a CM-5 sensor chip. An immobilization level of 7700 RU was obtained. A nonderivatized flow cell was used as a control. The interaction between D1 peptide and the immobilized IL13 was determined by changes in the RU at different D1 concentrations.
A direct quantitative analytical method as Biacore was used to determine the affinity of the D1 peptide binding to IL-13 (FIG. 3C). Some limitations in the quantitative adjustment to the established models of the Biacore instrument caused a difficult interpretation of the results and impede an accurate determination of the affinity.

T1 sequence (P35225 35-146 limits assumed): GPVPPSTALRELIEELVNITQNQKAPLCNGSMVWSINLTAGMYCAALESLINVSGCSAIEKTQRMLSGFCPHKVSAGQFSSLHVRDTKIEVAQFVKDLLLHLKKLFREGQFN

B1: IL13Rα2D1 peptide (GSETWKTIITKN) (peptide)
peptide: GSETWKTIITKN
notes: Made by solid phase synthesis; also called peptide IL13Rα2 D1; L-version
For B1, the dissociation constant (Kd) is about 100 µM.

As a reminder, the Kd is the concentration at which binding is half-saturated.
